{"source": "patent US7611721B1", "about": "“Adjuvant combination formulations” (priority 2000, dated 2009)", "molecules": {"B1": {"name": "GM-CSF: Recombinant murine granulocyte macrophage colony stimulating factor (protein, UniProt P01587 18-141, looked up)", "Granulocyte-macrophage …": "APTRSPITVTRPWKHVEAIKEALNLLDDMPVTLNEEVEVVSNEFSFKKLTCVQTRLKIFEQGLRGNFTKLKGALNMTASYYQTYCPPTPETDCETQVTTYADFIDSLKTFLTDIPFECKKPGQK"}}, "key": {"[1]": {"system": "T1SP10MN(A) (−Cys)", "procedure": "Mice were immunized subcutaneously in the rump, in a total volume of 0.2 ml equally divided on each side of the tail. Immunizations were administered at varying time intervals, as indicated below. Antigen and cytokines were diluted in phosphate buffered saline to the appropriate concentrations and formulated with adjuvants less than 16 hours prior to immunization, under sterile conditions. Vaccines were mixed by gentle agitation, and stored at 4° C. Formulations were mixed by vortex immediately prior to immunization.\nReciprocal anti-HIV peptide-specific IgG endpoint titers were measured from pooled serum (n=5 Balb/c) at the indicated time points after initial immunization. Mice were immunized subcutaneously in the rump with 25 μg of T1SP10MN(A) (−Cys), unless otherwise indicated, on day 0, and on day 27. For recipients of Freund's adjuvants, mice were primed with peptide emulsified in CFA, and boosted with IFA. MPL™ SE was provided as an emulsion containing 2% squalene oil and 50 μg MPL™ per dose. SE is an oil-in-water emulsion vehicle consisting of squalene, glycerol, and an emulsifying agent. Recombinant murine IL-12 was delivered at 50 ng/mouse. Recombinant murine GM-CSF was delivered at 10 μg/mouse.\nReciprocal endpoint IgG subclass titers were measured from pooled serum (n=5 Balb/c) six weeks after initial immunization, two weeks after secondary immunization. Mice were immunized subcutaneously in the rump with 25 μg of peptide, unless otherwise indicated. For recipients of Freund's adjuvants, mice were primed with peptide emulsified in complete Freund's adjuvant, and boosted with incomplete Freund's adjuvant on weeks four and six. MPL™ SE was provided as an emulsion containing 2% squalene oil and 50 μg MPL™ per dose. SE is an oil-in-water emulsion vehicle consisting of squalene, glycerol, and an emulsifying agent. Recombinant murine IL-12 was delivered at 50 ng/mouse. Recombinant murine GM-CSF was delivered at 10 μg/mouse.\nMice were immunized subcutaneously in the rump, in a total volume of 0.2 ml equally divided on each side of the tail. Immunizations were administered on days 0 and 21 with 25 μg of the HIV peptide, together with the indicated amount of adjuvant(s).\nReciprocal anti-peptide IgG endpoint titers were measured from either geometric means from individual mice (GMT) or from pooled serum (n=5 Balb/c), obtained 14 days after the second immunization. IgG1 and IgG2a subclass endpoint titers were also measured from pooled serum."}, "[2]": {"system": "T1SP10MN(A) (−Cys)", "experimental": "Animals were bled prior to initial immunization, and at indicated time points. Serum was analyzed from individual mice, or as pools from mice within groups. Vaginal lavage was performed on euthanized mice to assess antibody levels. This was accomplished by instillation of 75:1 RPMI-10 into the vaginal vault of female mice using a 200:1 pipette. The vault was washed by repeated delivery and removal of fluid, which was then added to 10:1 of FBS. Vaginal lavage were analyzed as pools.\nFor analysis of HIV peptide-specific antibody and subclass distribution, peptide was suspended in either carbonate buffer (15 mM Na2CO3, 35 mM NaHCO3, pH 9.6), or PBS, at a concentration of 1 μg/ml and plated to 96 well microtiter plates (Nunc) in a volume of 100:1. After overnight incubation at 37° C., plates were washed, and blocked (0.1% gelatin/PBS) at room temperature for 2-4 hours. ELISA plates were washed with wash buffer (PBS, 0.1% Tween™20) before addition of serially diluted serum (PBS, 0.1% gelatin, 0.05% Tween™20, 0.02% sodium azide). After a four hour incubation, wells were washed and appropriate dilutions of biotinylated anti-isotype/subclass antibodies were added for incubation at 4° C. overnight. Wells were washed and incubated with strepavidin-conjugated horseradish peroxidase. After incubation, wells were washed, and developed with ABTS. Wells were read at 405 nm. Titers were standardized using control sera.\nVaginal IgG and IgA anti-peptide antibody titers were measured from lavage obtained 2 weeks after final immunization. Groups of 5 Balb/c female mice were immunized with 25 μg T1SP10MN(A) (−Cys) and the indicated adjuvant formulations on days 0, 28, and 42. Vaginal antibody titers were determined from pool d lavage fluid.\nHIV peptide-specific vaginal lavage endpoint reciprocal endpoint IgG and IgA antibody titers were measured from pooled serum (n=5 Balb/c) 15 days after secondary immunization. […] Aqueous MPL™ was delivered at 50 μg per dose. Recombinant murine IL-12 was delivered at 40 ng/mouse. Recombinant murine GM-CSF was delivered at 10 μg/mouse.\nVaginal IgG and IgA anti-peptide antibody titers were measured from lavage 41 days after initial immunization, 13 days after secondary immunization.", "remark": "listed apart in the source"}, "[3]": {"conditions": "Experiment 1, pooled serum n=5 Balb/c, 25 μg peptide s.c. day 0 and 27"}, "[4]": {"conditions": "Experiment 1, pooled serum n=5 Balb/c, six weeks after initial, two weeks after secondary immunization, 25 μg peptide"}, "[5]": {"conditions": "Experiment 2, pooled serum n=5 Balb/c, 14 days after second immunization"}, "[6]": {"conditions": "Experiment 4, individual Balb/c mouse, day 41, 13 days after secondary immunization (days 0 and 28)"}, "[7]": {"conditions": "Experiment 4, pooled serum n=5 Balb/c, day 41, 13 days after secondary immunization"}, "[8]": {"conditions": "Experiment 5, pooled serum n=5 Balb/c, immunized days 0 and 22, bled day 42"}, "[9]": {"conditions": "Experiment 1, pooled lavage, 5 Balb/c, immunized days 0, 28, 42, 2 weeks after final immunization"}, "[10]": {"conditions": "Experiment 2, pooled, n=5 Balb/c, 15 days after secondary immunization"}, "[11]": {"conditions": "Experiment 4, Balb/c, day 41, 13 days after secondary immunization"}}, "note": "Read-outs that look alike come from different tables or passages of the source."}
{"molecule": "B1", "values": [{"measurement": "Reciprocal anti-T1SP10MN(A) (-Cys) IgG endpoint titer, WEEK 4", "setting": "[1]; [3]", "value": "<100"}, {"measurement": "Reciprocal anti-T1SP10MN(A) (-Cys) IgG endpoint titer, WEEK 6", "setting": "[1]; [3]", "value": "17,579"}, {"measurement": "Reciprocal anti-T1SP10MN(A) (-Cys) IgG endpoint titer, WEEK 8", "setting": "[1]; [3]", "value": "12,537"}, {"measurement": "Reciprocal anti-T1SP10MN(A) (-Cys) IgG1 endpoint titer", "setting": "[1]; [4]", "value": "1,783"}, {"measurement": "Reciprocal anti-T1SP10MN(A) (-Cys) IgG2a endpoint titer", "setting": "[1]; [4]", "value": "<100"}, {"measurement": "Reciprocal anti-T1SP10MN(A) (-Cys) IgG2b endpoint titer", "setting": "[1]; [4]", "value": "<100"}, {"measurement": "Reciprocal anti-T1SP10MN(A) (−Cys) IgG (GMT) endpoint titer", "setting": "[1]; Experiment 2, geometric mean of individual Balb/c mice, 14 days after second immunization", "value": "1,756"}, {"measurement": "Reciprocal anti-T1SP10MN(A) (−Cys) IgG1 (pool) endpoint titer", "setting": "[1]; [5]", "value": "14,538"}, {"measurement": "Reciprocal anti-T1SP10MN(A) (−Cys) IgG2a (pool) endpoint titer", "setting": "[1]; [5]", "value": "4,864"}, {"measurement": "Reciprocal anti-T1SP10MN(A) (−Cys) IgG (pool) endpoint titer", "setting": "[1]; Experiment 2, pooled serum n=5 Balb/c, immunized days 0 and 21, 14 days after second immunization", "value": "27,333"}, {"measurement": "IgG serum titer specific for T1SP10MN(A) (−Cys), Mouse #1", "setting": "[1]; [6]", "value": 50}, {"measurement": "IgG serum titer specific for T1SP10MN(A) (−Cys), Mouse #2", "setting": "[1]; [6]", "value": 50}, {"measurement": "IgG serum titer specific for T1SP10MN(A) (−Cys), Mouse #3", "setting": "[1]; [6]", "value": 50}, {"measurement": "IgG serum titer specific for T1SP10MN(A) (−Cys), Mouse #4", "setting": "[1]; [6]", "value": 50}, {"measurement": "IgG serum titer specific for T1SP10MN(A) (−Cys), Mouse #5", "setting": "[1]; [6]", "value": 50}, {"measurement": "Geometric Mean IgG serum titer specific for T1SP10MN(A) (−Cys), GMT", "setting": "[1]; Experiment 4, n=5 Balb/c, day 41, 13 days after secondary immunization", "value": 50}, {"measurement": "Reciprocal anti-T1SP10MN(A) (−Cys) IgG1 endpoint titer", "setting": "[1]; [7]", "value": "5,514"}, {"measurement": "Reciprocal anti-T1SP10MN(A) (−Cys) IgG2a endpoint titer", "setting": "[1]; [7]", "value": "<100"}, {"measurement": "Reciprocal anti-T1SP10MN(A) (−Cys) IgG2b endpoint titer", "setting": "[1]; [7]", "value": "<100"}, {"measurement": "Reciprocal anti-T1SP10MN(A) (−Cys) IgG GMT", "setting": "[1]; Experiment 5, geometric mean n=5 Balb/c, immunized days 0 and 22, bled day 42", "value": "5,133"}, {"measurement": "Reciprocal anti-T1SP10MN(A) (−Cys) IgG1 endpoint titer", "setting": "[1]; [8]", "value": "3,815"}, {"measurement": "Reciprocal anti-T1SP10MN(A) (−Cys) IgG2a endpoint titer", "setting": "[1]; [8]", "value": "<1000"}, {"measurement": "Reciprocal anti-T1SP10MN(A) (−Cys) IgG2b endpoint titer", "setting": "[1]; [8]", "value": "<1000"}, {"measurement": "Reciprocal anti-T1SP10MN(A) (−Cys) IgG endpoint titer", "setting": "[1]; [8]", "value": "11,639"}, {"measurement": "Vaginal lavage IgA anti-T1SP10MN(A) (−Cys) antibody titer", "setting": "[2]; [9]", "value": "<20"}, {"measurement": "Vaginal lavage IgG anti-T1SP10MN(A) (−Cys) antibody titer", "setting": "[2]; [9]", "value": "<20"}, {"measurement": "Vaginal lavage reciprocal anti-T1SP10MN(A) (−Cys) IgA endpoint titer", "setting": "[2]; [10]", "value": "<10"}, {"measurement": "Vaginal lavage reciprocal anti-T1SP10MN(A) (−Cys) IgG endpoint titer", "setting": "[2]; [10]", "value": 26}, {"measurement": "Vaginal lavage IgA anti-T1SP10MN(A) (−Cys) antibody titer", "setting": "[2]; [11]", "value": "<10"}, {"measurement": "Vaginal lavage IgG anti-T1SP10MN(A) (−Cys) antibody titer", "setting": "[2]; [11]", "value": "<10"}]}
